This note sets out measurements from patent publication US20240336681A1 (LUDWIG MAXIMILIANS UNIVERSIT T M NCHEN, published 2024).

The target in experiment [1] is recombinant C-terminally His-tagged human CD47 (extracellular domain) (human) (UniProt Q08722). The experiment in a line: SPR, Biacore X100; construct captured by anti-human Fc on CM5 chip, human CD47 extracellular domain as analyte, 1:1 fit. A general note: In SPR one partner is held on a chip, and binding of the other changes the refractive index at the surface.
The target is the same in experiment [2]. Nature of the experiment: SPR, Biacore X100; analyte hCD47 31.25 to 2000 nM.
Experiment [3] shares this target. Nature of the experiment: SPR (affinity to CD47 as measured by SPR).
For experiment [4] the target is unchanged. The experiment in a line: SPR, Biacore X100; construct captured by anti-human Fc on a CM5 chip, CD47 extracellular domain as analyte, 1:1 fit.
The target in experiment [5] is T1, recombinant C-terminally His-tagged human CD47 (extracellular domain) (human, UniProt Q08722 19-141).
T1 construct: also called recombinantly expressed human CD47 extracellular domain
The experiment in a line: SPR, Biacore X100; antibody captured by anti-human Fc on a CM5 chip, CD47 extracellular domain as analyte, 1:1 fit. The method, then: (§1) Surface Plasmon Resonance (SPR) was used in addition to analyse binding of the different protein constructs to recombinantly expressed CD47 and to determine their affinity. Association (Kₒₙ) and dissociation (Koff) rate constants were determined by SPR using a Biacore™ X-100 (Cytiva). Using the Human antibody capture kit an anti-human Fc antibody was immobilized on a CM5 sensor chip in a covalent manner using the Amine coupling Kit according to manufacturer's instructions. Humanized anti-hCD47 IgGs were injected as ligand to reach a surface coverage of approximately 100 RU-400 RU. Recombinantly expressed human CD47 extracellular domain was used as analyte and injected in increasing concentrations (e. g. from 3.9 to 1000 nM), with standard association time of 120 s and dissociation time of 600 s. Experiments were performed in multi-cycle kinetics runs, with regeneration between sample injection with the respective regeneration buffer (3M MgCl2 for the human antibody capture kit). All reagents were diluted in HBS-EP+ buffer (Cytiva). Data are fit to a simple 1:1 interaction model using the global data analysis option available within BiaEvaluation 2.0.1 software. The dissociation constant (KD) was used as a value for the affinity and was calculated from the ratio between Koff and Kₒₙ.

For experiment [6], the target named is T1, recombinant C-terminally His-tagged …. The experiment in a line: SPR, Biacore X100; construct captured by anti-human Fc on CM5 chip, human CD47 extracellular domain as analyte, 1:1 fit. The method, then: as §1
Another experiment deals with T2, human CD47 on cells (human, UniProt Q08722 19-323).
T2 construct: also called CD47 on Molm-13, OVCAR-3, Suit-2 MSLN, HL-60 cells, red blood cells and CD47-transfected CHO cells
Nature of the experiment: flow cytometry on CD47-positive Expi293 cells, 50 nM antibody; MFI of the antibody over MFI of the isotype control. The method, then: Initially, binding of anti-hCD47 IgG4, anti-hCD47 IgG1 antibodies and Fab domains were measured on CD47-expressing cells by flow cytometry. Cells were stained with 50 nM of antibody followed by staining with a secondary fluorescently labelled anti-human IgG Fc or light-chain antibody, and analyzed by flow cytometry. Binding was measured by calculating the median fluorescence intensity (MFI) ratio, by dividing MFI of the antibody by the MFI of the isotype control.
(In general: A flow cytometer gives signals particle by particle.)

The target of experiment [7] is T1, recombinant C-terminally His-tagged …. The experiment in a line: SPR, Biacore X100.
The target is the same in experiment [8]. The experiment in a line: SPR, Biacore X100; format for the scFv not described.

recombinant C-terminally His-tagged human CD47 (extracellular domain) (human), sequence (Q08722 19-141): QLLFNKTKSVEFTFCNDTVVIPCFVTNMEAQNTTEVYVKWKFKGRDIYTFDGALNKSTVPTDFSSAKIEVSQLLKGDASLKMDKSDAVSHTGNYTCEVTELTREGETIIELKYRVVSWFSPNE
T1 sequence (Q08722 19-141): as above
T2 sequence (Q08722 19-323): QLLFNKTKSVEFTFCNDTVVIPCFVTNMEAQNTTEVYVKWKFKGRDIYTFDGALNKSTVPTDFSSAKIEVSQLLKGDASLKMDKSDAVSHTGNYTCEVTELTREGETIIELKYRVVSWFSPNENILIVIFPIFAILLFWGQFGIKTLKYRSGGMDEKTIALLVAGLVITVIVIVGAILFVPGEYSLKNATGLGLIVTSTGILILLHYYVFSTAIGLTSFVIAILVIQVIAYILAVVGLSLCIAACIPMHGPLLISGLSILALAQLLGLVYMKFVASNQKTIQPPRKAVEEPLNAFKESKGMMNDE

B1: MSL-745 (bispecific antibody, part only; not given: anti-mesothelin IgG1 chains and linkers, V domains shown, not shown: another chain or arm of the molecule; large carriers; small tags and cut ends)
VH: QVELVQSGPEVKKPGSSVKVSCKASGYTFPSYDINWVRQRPGQCLEWMGGIYPRSGSPKYNEKFKGRVTITADTSTSTAYMELHSLRSEDTAVYYCARSVYYGTQFAYWGQGTLVTVSA
VL: DIVLTQSPSSLAVSLGERVTMSCKSSQSLLNSRTRKNYLAWYQQKPGQPPKLLIYWASTRDSGVPDRFSGSGSGTDFTLTISSLQAEDVAVYYCQQSFNLVTFGCGTKLEIK
Usually Kd stands for the equilibrium constant for the complex coming apart. One may read the koff as the rate constant with which the complex falls apart. The kon is the rate constant with which the complex forms. In the case of B1, in [1], the Kd was found to be 578 nM. Moreover, in [2], the koff was 0.396 s⁻¹ and the kon is 685000 M⁻¹ s⁻¹.

B2: 2D6-059 (bispecific antibody, part only; not given: linkers and anti-TAA IgG1 chains, V domains shown, not shown: another chain or arm of the molecule; large carriers; small tags and cut ends)
VH: QVELVQSGPEVKKPGSSVKVSCKASGYTFPSYDINWVRQRPGQCLEWMGGIYPRSGSPKYNEKFKGRVTITADTSTSTAYMELHSLRSEDTAVYYCARSVYYGTQFAYWGQGTLVTVSA
VL: DIVLTQSPSSLAVSLGERVTMSCKSSQSLLNSRTRKNYLAWYQQKPGQPPKLLIYWASTRDSGVPDRFSGSGSGTDFTLTISSLQAEDVAVYYCQQSFNLVTFGCGTKLEIK
On to B2, for which, in experiment [3], the Kd was 568 nM.

B3: 2D6-056 (bispecific antibody, part only; not given: linkers and anti-TAA IgG1 chains, V domains shown, not shown: another chain or arm of the molecule; large carriers; small tags and cut ends)
VH: QVELVQSGPEVKKPGSSVKVSCKASGYTFPSYDINWVRQRPGQGLEWMGGIYPRSGSPKYNEKFKGRVTITADTSTSTAYMELHSLRSEDTAVYYCARSVYYGTQFAYWGQGTLVTVSA
VL: DIVLTQSPSSLAVSLGERVTMSCKSSQSLLNSRTRKNYLAWYQQKPGQPPKLLIYWASTRDSGVPDRFSGSGSGTDFTLTISSLQAEDVAVYYCQQSFNLVTFGGGTKLEIK
Consider B3, for which the Kd in experiment [3] turned out to be 659 nM.

B4: 2D6-022 (bispecific antibody, part only; not given: linkers and anti-TAA IgG1 chains, V domains shown, not shown: another chain or arm of the molecule; large carriers; small tags and cut ends)
VH: QVELVQSGPEVKKPGSSVKVSCKASGYTFPSYDINWVRQRPGQGLEWMGWIYPRDGSPKYNEKFKGRVTITADTSTSTAYMELHSLRSEDTAVYYCARSVYYGTQFAYWGQGTLVTVSA
VL: DIVLTQSPSSLAVSLGERVTMSCKSSQSLLNSRTRKNYLAWYQQKPGQPPKLLIYWASTRDSGVPDRFSGSGSGTDFTLTISSLQAEDVAVYYCKQSFNLVTFGGGTKLEIK
For the molecule B4, the Kd in experiment [1] was 106 nM. Moreover, in experiment [4], the koff worked out at 0.07 s⁻¹ and the on-rate (kon) is 660000 M⁻¹ s⁻¹.

B5: 2D6-031 (bispecific antibody, part only; not given: linkers and anti-TAA IgG1 chains, V domains shown, not shown: another chain or arm of the molecule; large carriers; small tags and cut ends)
VH: QVQLVESGGGLVQPGGSLRLSCAASGYTFPSYDINWVRQAPGKGLEWVGWIYPRDGSPKYNEKFKGRFTISADTSKNTAYLQMNSLRAEDTAVYYCARSVYYGTQFAYWGQGTLVTVSS
VL: DIQMTQSPSSLSASVGDRVTITCKSSQSLLNSRTRKNYLAWYQQKPGKAPKLLIYWASTRDSGVPSRFSGSGSGTDFTLTISSLQPEDFATYYCKQSFNLVTFGQGTKVEIK
With B5, in experiment [1], the Kd worked out at 138 nM. Also, in experiment [4], the koff was 0.14 s⁻¹ and the kon was determined as 990000 M⁻¹ s⁻¹.

B6: 2D6-015 (antibody, IgG4, V domains shown)
VH: QVQLVESGGGLVQPGGSLRLSCAASGYTFPSYDINWVRQAPGKGLEWVGWIYPRDGSPKYNEKFKGRFTISADTSKNTAYLQMNSLRAEDTAVYYCARSVYYGTQFAYWGQGTLVTVSS
VL: DIQMTQSPSSLSASVGDRVTITCKSSQSLLNSRTRKNYLAWYQQKPGKAPKLLIYWASTRDSGVPSRFSGSGSGTDFTLTISSLQPEDFATYYCKQSFNLVTFGQGTKVEIK
notes: hIgG4 (humanized IgG4); only the variable domains are tied to the construct; also called VH4/VL3
For the molecule B6, in experiment [5], the Kd came out at 310 nM, the koff is 0.22 s⁻¹ and the kon stood at 710000 M⁻¹ s⁻¹. In addition, in experiment [6], the Kd amounted to 311 nM. Further, in the experiment with human CD47 on cells, the MFI ratio turned out to be 4.14.

B7: 2D6-016 (antibody, IgG4, V domains shown)
VH: QVQLVESGGGLVQPGGSLRLSCAASGYTFPSYDINWVRQAPGKGLEWVGWIYPRDGSPKYNEKFKGRFTISADTSKNTAYLQMNSLRAEDTAVYYCARSVYYGTQFAYWGQGTLVTVSS
VL: DIVMTQSPSSLSASVGDRVTITCKSSQSLLNSRTRKNYLAWYQQKPGKAPKLLIYWASTRDSGVPDRFSGSGSGTDFTLTISSLQPEDFATYYCKQSFNLVTFGQGTKVEIK
notes: hIgG4 (humanized IgG4); only the variable domains are tied to the construct; also called VH4/VL4
For the molecule B7, in experiment [5], the Kd came to 203 nM, the off-rate (koff) amounted to 0.36 s⁻¹ and the kon is 1.8e+06 M⁻¹ s⁻¹. Further, in [6], the Kd is 203 nM. Moreover, the MFI ratio with human CD47 on cells worked out at 3.42.

B8: 2D6-032 (bispecific antibody, part only; not given: linkers and anti-TAA IgG1 chains, V domains shown, not shown: another chain or arm of the molecule; large carriers; small tags and cut ends)
VH: QVQLVESGGGLVQPGGSLRLSCAASGYTFPSYDINWVRQAPGKGLEWVGWIYPRDGSPKYNEKFKGRFTISADTSKNTAYLQMNSLRAEDTAVYYCARSVYYGTQFAYWGQGTLVTVSS
VL: DIVMTQSPSSLSASVGDRVTITCKSSQSLLNSRTRKNYLAWYQQKPGKAPKLLIYWASTRDSGVPDRFSGSGSGTDFTLTISSLQPEDFATYYCKQSFNLVTFGQGTKVEIK
On to B8, for which the Kd in experiment [1] is 141 nM. In [4], the koff came to 0.13 s⁻¹ and the kon is 960000 M⁻¹ s⁻¹.

B9: 2D6-096 (scFv, V domains shown, not shown: small tags and cut ends)
VH: QVQLVESGGGLVQPGGSLRLSCAASGYTFTSYDINWVRQAPGKGLEWVGWIYPRDGSPKYNEKFKGRFTISADTSKNTAYLQMNSLRAEDTAVYYCARSVYYGTQFAYWGQGTLVTVSS
VL: DIQMTQSPSSLSASVGDRVTITCKSSQSLLNSRTRKNYLAWYQQKPGKAPKLLIYWASTRDSGVPSRFSGSGSGTDFTLTISSLQPEDFATYYCKQSFNLVTFGQGTKVEIK
notes: Standalone scFv; also called anti-CD47 scFv (2D6-096); VH3/VL3
Regarding B9, in [7], the koff stood at 0.00163 s⁻¹ and the kon came out at 81500 M⁻¹ s⁻¹. In experiment [8], the Kd is 20 nM.
